According to patent US20230203482A1, “Methods of Rescuing Stop Codons via Genetic Reassignment with ACE-tRNA” (THE WISTAR INSTITUTE OF ANATOMY AND BIOLOGY, priority 2017, published 2023):
“Also recorded” adds a separate entry of the source.

Assays:
CFTR W1282X = test: Two-electrode voltage clamp of CFTR W1282X in Xenopus laevis oocytes; format: cell-based, human
Description: (§1) In vitro cRNA transcription. G542XUGA, W1282XUGA, and WT CFTR pGEMHE (Mense et al., 2006; PMID:1703051) plasmids were linearized by 10× excess of NheI-HF restriction enzyme (site positioned 3′ of coding region)(New England BioLabs, USA) for 3 hours at 37° C. and purified using standard cDNA precipition methods. All cRNAs were transcribed using the mMessage mMachine T7 Kit (ThermoFisher Scientific; USA). Purification of the cRNA from the transcription reaction was conducted on columns from the RNeasy Mini Kit (Qiagen, Germany). Concentration was determined by absorbance measurements at 260 nm and quality was confirmed on a 1% agarose gel (RNase-free). All cRNA was queued to […] before use and all results were generated from ≥2 cRNA preparations.
(§2) In vitro tRNA transcription. […] Equimolar concentration of T7 oligo (5)-taatacgactcactata-3′) was annealed to ACE-tRNA PAGE-purified Ultramers (20 ug; Integrated DNA Technologies, Coralville, Iowa) coding for the ACE-tRNA and preceded by a T7 promoter (italics). Importantly, the three terminal nucleotides containing CCA were included (bold).
The total reaction volume was adjusted to 100 μl and the kit reagents were added in the following amounts: 10 μl of 10X T7-Scribe transcription buffer, 7.5 μl of each nucleotide (100 mM stocks), 10 μl of 100 mM Dithiothreitol, 2.5 μl ScriptGuard RNase Inhibitor, 10 μl T7-Scribe enzyme solution. After the reaction was incubated for 4-5 hours at 37° C., the DNA template was digested with 5 μl DNase (1 U/μl) provided with the kit for 30-60 min. The ACE-tRNA was extracted from the reaction with acidic phenol chloroform (5:1, pH 4.5) and precipitated with ethanol. […]
(§3) Two-electrode voltage clamp (TEVC) recordings. CFTR Cl^− currents were recorded in ND96 bath solution that contained (in mM): 96 NaCl, 2 KCl, 1 MgCl2, and 5 HEPES (pH 7.5) in the presence of a maximal CFTR activation cocktail, forskolin ([…]; adenylate cyclase activator) and 3-isobutyl-1-methylxanthine (1 mM; phosphodiesterase inhibitor). […]

CFTR G542X = test: Two-electrode voltage clamp of CFTR G542X in Xenopus laevis oocytes; format: cell-based, human; settings: for rescued CFTR current relative to WT CFTR: compared to WT CFTR cRNA 25 ng
Description: as §1, §2
The total reaction volume was adjusted to 100 μl and the kit reagents were added in the following amounts: 10 μl of 10X T7-Scribe transcription buffer, 7.5 μl of each nucleotide (100 mM stocks), 10 μl of 100 mM Dithiothreitol, 2.5 μl ScriptGuard RNase Inhibitor, 10 μl T7-Scribe enzyme solution. After the reaction was incubated for 4-5 hours at 37° C., the DNA template was digested with 5 μl DNase (1 U/μl) provided with the kit for 30-60 min. The ACE-tRNA was extracted from the reaction with acidic phenol chloroform (5:1, pH 4.5) and precipitated with ethanol. The precipitates ACE-tRNA was pelleted, washed, dried and resuspended in 100 μl DEPC-treated water and further purified with Chrorna Spin-30 columns (Clontech, USA). The procedure yielded roughly 100 μl of ˜5 μg/μl ACE-tRNA. ACE-tRNAs were re-pelleted in 20 ug aliquots, washed, lyophilized and stored at −80° C. until use. All results were generated from ≥2 ACE-tRNA preparations.
Expression in Xenopus laevis oocytes. Xenopus laevis oocytes (stage V and VI) were purchased from Ecocyte (Austin, Tex.). Prior to injection, each ACE-tRNA pellet was resuspended in 2 μl of ddH2O and debris was pelleted at 21,000×g, 4° C. for 25 min. […]
as §3

**Q.** Which Hill coefficient (CFTR W1282X; W1282X dose response) does the source give for “Trpchr17.trna39: top performing tryptophan ACE-tRNA UGA suppressor, SEQ ID NO: 48” here?
**A.** 1.24

**Q.** What about the “CFTR chloride conductance, suppression of UGA PTC” value (CFTR W1282X; W1282X, 200 ng ACE-tRNA co-injected, forskolin and IBMX) of the same molecule?
**A.** highly efficacious

**Q.** What about the “rescued CFTR current relative to WT CFTR” value (CFTR W1282X; W1282X, compared to WT CFTR cRNA 25 ng) of the same molecule?
**A.** ~50%

B1: Glychr19.trna2: top performing glycine ACE-tRNA UGA suppressor, SEQ ID NO: 53 (nucleic acid)
chain: GCGTTGGTGGTATAGTGGTTAGCATAGCTGCCTTCAAAGCAGTTGACCCGGGTTCGATTCCCGGCCAACGCA
modifications: chemistry not fully specified
**Q.** How did the Hill coefficient (CFTR G542X; G542X dose response) turn out when B1 was run?
**A.** ~1.4

**Q.** What about the “CFTR chloride conductance, suppression of UGA PTC” value (CFTR G542X; G542X, 200 ng ACE-tRNA co-injected, forskolin and IBMX) of the same molecule?
**A.** highly efficacious

**Q.** And the “rescued CFTR current relative to WT CFTR” value (CFTR G542X; G542X)?
**A.** WT-like current levels of expression

**Q.** And the “rescued CFTR current relative to WT CFTR” value (CFTR G542X; G542X, listed as ACE-tRNAGly)?
**A.** clear saturation at WT CFTR levels; also recorded: achieves WT-level of expressed CFTR current
